Test results: publication PMC8869672

Target: T1, NADPH-cytochrome P450 reductase (human (endogenous in human liver microsomes)) (UniProt P16435)
T1 sequence: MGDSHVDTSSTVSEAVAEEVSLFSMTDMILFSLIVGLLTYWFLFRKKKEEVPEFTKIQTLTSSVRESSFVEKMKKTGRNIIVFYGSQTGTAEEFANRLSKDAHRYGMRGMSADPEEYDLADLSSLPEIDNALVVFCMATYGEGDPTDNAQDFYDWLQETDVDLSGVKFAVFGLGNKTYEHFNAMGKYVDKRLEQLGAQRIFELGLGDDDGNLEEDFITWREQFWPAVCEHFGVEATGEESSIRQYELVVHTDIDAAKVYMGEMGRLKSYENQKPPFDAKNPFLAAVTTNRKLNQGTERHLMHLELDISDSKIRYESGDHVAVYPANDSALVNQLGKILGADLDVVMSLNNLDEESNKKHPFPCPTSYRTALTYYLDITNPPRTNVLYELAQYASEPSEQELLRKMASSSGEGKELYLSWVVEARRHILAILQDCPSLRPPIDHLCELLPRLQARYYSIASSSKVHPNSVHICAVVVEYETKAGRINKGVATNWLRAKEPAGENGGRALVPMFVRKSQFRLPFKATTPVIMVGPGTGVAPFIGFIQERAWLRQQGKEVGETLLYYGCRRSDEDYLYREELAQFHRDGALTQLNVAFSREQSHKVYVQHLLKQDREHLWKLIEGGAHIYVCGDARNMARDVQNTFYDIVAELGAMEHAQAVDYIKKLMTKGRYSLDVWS

Vmax of 7-EFC deethylation by CYP2E1-BPM incorporated into insect cell microsomes with cDNA-expressed human CPR and cytochrome b5 (SS(CPR+b5)2E1-BPM), normalised per CPR: 0.104 s⁻¹
Vmax of 7-EFC deethylation by CYP2E1-BPS incorporated into insect cell microsomes with cDNA-expressed human CPR and cytochrome b5 (SS(CPR+b5)2E1-BPS), normalised per CPR: 1.51 s⁻¹
Substance: C-terminally His-tagged and N-terminally truncated Δ3–20 CYP2E1 modified with benzophenone-4-maleimide (BPM) or 4-(N-succinimidylcarboxy)benzophenone (BPS) (from UniProt P05181 1-493) (enzyme)
